Patent US20220363757A1 (SYMPHOGEN A S, published 2022)

Tests used:
mouse LAG-3 ECD = biological target: T1, mouse LAG-3 ECD (mouse, UniProt Q61790 24-442); assay: SPR, Fab over captured LAG-3 ECD
T1 sequence: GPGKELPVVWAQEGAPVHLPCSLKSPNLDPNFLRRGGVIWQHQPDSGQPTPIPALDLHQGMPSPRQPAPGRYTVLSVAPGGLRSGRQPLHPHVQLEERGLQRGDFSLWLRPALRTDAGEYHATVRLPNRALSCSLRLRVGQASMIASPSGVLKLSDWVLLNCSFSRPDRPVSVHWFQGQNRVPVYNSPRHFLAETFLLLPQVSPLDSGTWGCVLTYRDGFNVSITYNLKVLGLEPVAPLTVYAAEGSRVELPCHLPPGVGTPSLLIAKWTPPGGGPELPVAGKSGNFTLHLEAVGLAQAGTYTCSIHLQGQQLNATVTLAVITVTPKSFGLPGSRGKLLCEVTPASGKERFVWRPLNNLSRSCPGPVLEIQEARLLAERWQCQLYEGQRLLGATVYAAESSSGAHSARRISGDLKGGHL
Description: Antigens were purified using standard procedures and captured onto an G-a-hu-IgG Fc SensEye® (Ssens BV, The Netherlands) for 15 minutes using a Continuous Flow Microspotter (CFM, Wasatch Microfluidics, Salt Lake City, US). After spotting, the SensEye® was positioned in the IBIS MX96 biosensor and remaining capture sites blocked. […] Fab association was performed for 15 minutes and antigen dissociation was performed for 15 minutes. The recorded binding responses were fitted to a simple Langmuir 1:1 binding model with Scrubber 2 software for calculation of the on-rate (kon or ka), off-rate (koff or kd) and affinity (KL) constants.

[1] = biological target: T2, human LAG-3 domain 1-2 Fc fusion, chimeric construct #1 (mutated region AA 23-30) (human, UniProt P18627 31-266); assay: SPR, Fab over captured mutant LAG-3-Fc;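 also: LAG-3 fusion proteins captured on an anti-human IgG Fc sensor chip and read on an IBIS MX96 biosensor, Fab association and dissociation each 15 min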
T2 construct: not shown: human IgG1 Fc, AA P101-K330
T2 sequence: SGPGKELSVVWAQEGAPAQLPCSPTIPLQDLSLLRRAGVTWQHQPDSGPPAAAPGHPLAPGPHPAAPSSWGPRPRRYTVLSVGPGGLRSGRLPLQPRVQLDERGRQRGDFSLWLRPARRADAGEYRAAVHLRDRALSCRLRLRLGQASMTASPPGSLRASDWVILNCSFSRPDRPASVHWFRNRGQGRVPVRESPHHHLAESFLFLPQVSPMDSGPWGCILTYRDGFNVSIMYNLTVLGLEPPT

[2] = biological target: T3, human LAG-3 domain 1-2 Fc fusion, chimeric construct #14 (mutated region AA 88-97) (human, UniProt P18627 23-266); assay: SPR, Fab over captured mutant LAG-3-Fc;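 also: LAG-3 fusion proteins captured on an anti-human IgG Fc sensor chip and read on an IBIS MX96 biosensor, Fab association and dissociation each 15 min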
T3 construct: not shown: human IgG1 Fc, AA P101-K330
T3 chain: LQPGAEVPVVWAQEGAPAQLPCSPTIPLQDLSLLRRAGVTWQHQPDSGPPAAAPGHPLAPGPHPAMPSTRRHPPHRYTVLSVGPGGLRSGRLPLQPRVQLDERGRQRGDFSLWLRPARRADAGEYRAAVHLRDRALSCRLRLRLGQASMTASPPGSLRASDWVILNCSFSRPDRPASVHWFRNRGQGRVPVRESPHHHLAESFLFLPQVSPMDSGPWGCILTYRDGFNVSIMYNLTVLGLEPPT

[3] = biological target: T4, human LAG-3 domain 1-2 Fc fusion, chimeric construct #17 (mutated region AA 114-117) (human, UniProt P18627 23-266); assay: SPR, Fab over captured mutant LAG-3-Fc;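 also: LAG-3 fusion proteins captured on an anti-human IgG Fc sensor chip and read on an IBIS MX96 biosensor, Fab association and dissociation each 15 min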
T4 construct: not shown: human IgG1 Fc, AA P101-K330
T4 chain: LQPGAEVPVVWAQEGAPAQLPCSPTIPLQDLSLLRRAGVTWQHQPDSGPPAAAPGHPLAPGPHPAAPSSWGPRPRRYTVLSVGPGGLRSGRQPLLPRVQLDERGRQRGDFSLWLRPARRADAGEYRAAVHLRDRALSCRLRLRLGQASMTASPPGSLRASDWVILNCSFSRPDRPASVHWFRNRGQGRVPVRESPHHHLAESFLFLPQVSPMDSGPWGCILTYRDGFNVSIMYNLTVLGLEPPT

[4] = biological target: T5, human LAG-3 domain 1-2 Fc fusion, chimeric construct #24 (mutated region AA 148-154) (human, UniProt P18627 23-266); assay: SPR, Fab over captured mutant LAG-3-Fc;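 also: LAG-3 fusion proteins captured on an anti-human IgG Fc sensor chip and read on an IBIS MX96 biosensor, Fab association and dissociation each 15 min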
T5 construct: not shown: human IgG1 Fc, AA P101-K330
T5 chain: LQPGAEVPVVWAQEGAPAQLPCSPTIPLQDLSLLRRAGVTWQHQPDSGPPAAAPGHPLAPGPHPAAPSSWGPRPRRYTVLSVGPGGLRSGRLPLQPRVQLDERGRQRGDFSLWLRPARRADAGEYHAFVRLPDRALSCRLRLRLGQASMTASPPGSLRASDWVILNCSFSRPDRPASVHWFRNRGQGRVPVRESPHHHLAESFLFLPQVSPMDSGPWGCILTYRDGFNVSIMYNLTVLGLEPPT

[5] = biological target: T6, human LAG-3 domain 1-2 Fc fusion, chimeric construct #27 (mutated region AA 161-166) (human, UniProt P18627 23-266); assay: SPR, Fab over captured mutant LAG-3-Fc
T6 construct: not shown: human IgG1 Fc, AA P101-K330
T6 chain: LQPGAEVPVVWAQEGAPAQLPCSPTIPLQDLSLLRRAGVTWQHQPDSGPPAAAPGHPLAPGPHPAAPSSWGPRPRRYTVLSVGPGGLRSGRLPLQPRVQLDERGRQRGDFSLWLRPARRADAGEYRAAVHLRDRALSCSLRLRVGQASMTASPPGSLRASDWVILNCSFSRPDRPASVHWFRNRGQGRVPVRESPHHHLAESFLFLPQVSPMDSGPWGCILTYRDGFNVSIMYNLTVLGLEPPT

[6] = biological target: T7, human LAG-3 domain 1-2 Fc fusion, chimeric construct #28 (mutated region AA 84-90, cynomolgus backmutations) (human, UniProt P18627 23-266); assay: SPR, Fab over captured mutant LAG-3-Fc
T7 construct: not shown: human IgG1 Fc, AA P101-K330
T7 chain: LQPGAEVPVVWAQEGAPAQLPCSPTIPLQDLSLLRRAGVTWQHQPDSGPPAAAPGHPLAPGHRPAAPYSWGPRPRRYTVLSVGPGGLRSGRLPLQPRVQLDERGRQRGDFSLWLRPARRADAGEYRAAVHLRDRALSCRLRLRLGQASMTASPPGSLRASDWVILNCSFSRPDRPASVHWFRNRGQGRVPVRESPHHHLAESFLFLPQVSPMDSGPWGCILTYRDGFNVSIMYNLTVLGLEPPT

[7] = biological target: T8, human LAG-3 domain 1-2 Fc fusion, point mutation #44 R97A (human, UniProt P18627 23-266); assay: SPR, Fab over captured mutant LAG-3-Fc;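 also: fc fusion variants captured on anti-human IgG Fc sensor, Fab injected with association then dissociation phases, KD obtained from Langmuir one-to-one fit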
T8 construct: not shown: human IgG1 Fc, AA P101-K330
T8 sequence: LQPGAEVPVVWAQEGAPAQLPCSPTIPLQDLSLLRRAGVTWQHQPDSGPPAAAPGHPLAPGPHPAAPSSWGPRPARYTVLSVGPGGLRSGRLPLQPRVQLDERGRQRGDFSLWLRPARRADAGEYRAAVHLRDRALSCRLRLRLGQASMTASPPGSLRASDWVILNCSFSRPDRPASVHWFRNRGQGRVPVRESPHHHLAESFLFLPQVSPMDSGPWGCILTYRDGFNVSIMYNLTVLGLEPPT

B1: Fab fragment of antibody 15532 (Fab, V domains shown, not shown: a dimerising Fc or GST)
VH: QVQLQQWGAGLLRPSETLSLTCAVYGESFSGYYWNWIRQPPGKGLEWIGEINHSGSTNYNPSLKSRVTISVDTSKTQFSLKLSSVTAADTAVYYCARGWDLLDWNDYWNEYWGQGTLVTVSS
VL: EIVLTQSPATLSLSPGERATLSCRASQSVSSYLAWYQQKPGQAPRLLIYDASNRATGIPARFSGSGSGTDFTLTISSLEPEDFAVYYCQQRSNWPLTFGGGTKVEIKR
notes: monomeric Fab made by GingisKHAN digestion of the IgG1
binding result (mouse LAG-3 ECD): no binding (tested: 1000 nM)
KD mutant/KD wild type [1]: 3.2 fold
binding result [2]: no binding (tested: 300 nM)
KD mutant/KD wild type [3]: 1.4 fold
KD mutant/KD wild type [4]: 2.6 fold
KD mutant/KD wild type [5]: 0.8 fold
KD mutant/KD wild type [6]: 4.8 fold
KD mutant/KD wild type [7]: 0.9 fold

B2: Fab fragment of antibody 15011 (Fab, V domains shown, not shown: a dimerising Fc or GST)
VH: EVQLLESGGGLVQPGGSLRLSCAASGFDFRSYAMMWVRQAPGKGLEWVGGINGEVGGSNTYYAPAVKGRATISRDNSKNTLYLQMNSLRAEDTAVYYCVKGAGACGICNDDIDAWGQGTLVTVSS
VL: SYELTQDPAVSVALGQTVRITCSGAGSYAGSYYYGWHQQKPGQAPVTVIYDNDKRPSNIPDRFSGSSSGNTASLTITGAQAEDEADYYCGSTNDNDDGGLFGSGTKVTVLG
notes: as for B1
Kd (mouse LAG-3 ECD): 33 nM
koff (mouse LAG-3 ECD): 0.0023 s⁻¹
kon (mouse LAG-3 ECD): 72000 M⁻¹ s⁻¹
KD mutant/KD wild type [1]: 0.5 fold
KD mutant/KD wild type [2]: 0.6 fold
KD mutant/KD wild type [3]: 2.6 fold
KD mutant/KD wild type [4]: 1.9 fold
KD mutant/KD wild type [5]: 2.3 fold
KD mutant/KD wild type [6]: 0.6 fold
KD mutant/KD wild type [7]: 0.7 fold

B3: Fab fragment of antibody 15431 (Fab, V domains shown, not shown: a dimerising Fc or GST)
VH: QVQLQQSGPGLVKPSQTLSLTCAISGDSVSSNSAAWNWIRQSPSRGLEWLGRTYYRSKWYNDYAVSVKSRITINPDTSKNQFSLQLNSVTPEDTAVYYCARDDDWNDFDYWGQGTLVTVSS
VL: EIVLTQSPATLSLSPGERATLSCRASQSVSSYLAWYQQKPGQAPRLLIYDASNRATGIPARFSGSGSGTDFTLTISSLEPEDFAVYYCQQRSNWPLTFGGGTKVEIKR
notes: as for B1
binding result (mouse LAG-3 ECD): no binding (tested: 1000 nM)
binding result [1]: no binding (tested: 300 nM)
binding result [2]: no binding (tested: 300 nM)
KD mutant/KD wild type [3]: 0.5 fold
KD mutant/KD wild type [4]: 10.6 fold
KD mutant/KD wild type [5]: 1.3 fold
KD mutant/KD wild type [6]: 1.1 fold
KD mutant/KD wild type [7]: 1.3 fold

B4: Fab fragment of antibody 15572 (Fab, V domains shown, not shown: a dimerising Fc or GST)
VH: QLQLQESGPGLVKPSETLSLTCTVSGDSISSSSYYWGWIRQPPGKGLEWIGSIFYSGNTYYNPSLKSRVTISVDTSKNQFSLKLSSVTAADTAVYYCAREDDFLTDYYGAFDIWGQGTMVTVSS
VL: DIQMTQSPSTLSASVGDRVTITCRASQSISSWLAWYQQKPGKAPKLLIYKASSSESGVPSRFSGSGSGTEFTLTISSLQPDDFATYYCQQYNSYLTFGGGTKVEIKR
notes: as for B1
binding result (mouse LAG-3 ECD): no binding (tested: 1000 nM)
binding result [1]: no binding (tested: 300 nM)
KD mutant/KD wild type [2]: 0.7 fold
KD mutant/KD wild type [3]: 0.5 fold
binding result [4]: no binding (tested: 300 nM)
KD mutant/KD wild type [5]: 1.7 fold
KD mutant/KD wild type [6]: 0.5 fold
KD mutant/KD wild type [7]: 0.6 fold
